The results in this text go back to PMC8748658.

This assay addresses L1-70-Myc. Put plainly: ELISA; purified L1-70-Myc coated in PBS on 96-well plates; purified Top1-HA at 0.1, 0.5, 1, 5 and 10 nM, 2 h at 37 °C; detection with rabbit anti-HA, TMB.

B1: Top1-HA (enzyme)
chain: MSGDHLHNDSQIEADFRLNDSHKHKDKHKDREHRHKEHKKDKDKDREKSKHSNSEHKDSEKKHKEKEKTKHKDGSSEKHKDKHKDRDKERRKEEKIRAAGDAKIKKEKENGFSSPPRIKDEPEDDGYFAPPKEDIKPLKRLRDEDDADYKPKKIKTEDIKKEKKRKSEEEEDGKLKKPKNKDKDKKVAEPDNKKKKPKKEEEQKWKWWEEERYPEGIKWKFLEHKGPVFAPPYEPLPESVKFYYDGKVMKLSPKAEEVATFFAKMLDHEYTTKEIFRKNFFKDWRKEMTNDEKNTITNLSKCDFTQMSQYFKAQSEARKQMSKEEKLKIKEENEKLLKEYGFCVMDNHRERIANFKIEPPGLFRGRGNHPKMGMLKRRIMPEDIIINCSKDAKVPSPPPGHKWKEVRHDNKVTWLVSWTENIQGSIKYIMLNPSSRIKGEKDWQKYETARRLKKCVDKIRNQYREDWKSKEMKVRQRAVALYFIDKLALRAGNEKEEGETADTVGCCSLRVEHINLHPELDGQEYVVEFDFPGKDSIRYYNKVPVEKRVFKNLQLFMENKQPEDDLFDRLNTGILNKHLQDLMEGLTAKVFRTYNASITLQQQLKELTAPDENVPAKILSYNRANRAVAILCNHQRAPPKTFEKSMMNLQSKIDAKKDQLADARRDLKSAKADAKVMKDAKTKKVVESKKKAVQRLEEQLMKLEVQATDREENKQIALGTSKLNYLDPRITVAWCKKWGVPIEKIYNKTQREKFAWAIDMTDEDYEF
In the case of B1, the concentration of Top1-HA at saturation came out at 1 nM.
